Tests used:
[1] = biological target: His6-LacI-51 (UniProt P03023 51-360, del1-50); experiment: filter binding
[2] = biological target: T1, His6-LacI-59 (UniProt P03023 59-360, del1-58); experiment: filter binding
[3] = biological target: T1, His6-LacI-59; experiment: EMSA
[4] = biological target: wild-type LacI (UniProt P03023 1-360); experiment: EMSA
Chain of wild-type LacI (P03023 whole entry): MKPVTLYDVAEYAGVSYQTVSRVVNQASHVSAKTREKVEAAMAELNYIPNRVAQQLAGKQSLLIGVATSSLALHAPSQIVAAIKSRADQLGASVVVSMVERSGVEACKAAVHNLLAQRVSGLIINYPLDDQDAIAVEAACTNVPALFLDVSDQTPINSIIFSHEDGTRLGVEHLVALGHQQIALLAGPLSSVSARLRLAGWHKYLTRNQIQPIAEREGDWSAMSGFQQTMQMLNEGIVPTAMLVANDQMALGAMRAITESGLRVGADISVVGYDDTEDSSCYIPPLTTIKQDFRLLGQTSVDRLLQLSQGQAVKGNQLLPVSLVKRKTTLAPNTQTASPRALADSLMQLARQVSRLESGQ

T1 sequence (P03023 59-360, stated change not applied): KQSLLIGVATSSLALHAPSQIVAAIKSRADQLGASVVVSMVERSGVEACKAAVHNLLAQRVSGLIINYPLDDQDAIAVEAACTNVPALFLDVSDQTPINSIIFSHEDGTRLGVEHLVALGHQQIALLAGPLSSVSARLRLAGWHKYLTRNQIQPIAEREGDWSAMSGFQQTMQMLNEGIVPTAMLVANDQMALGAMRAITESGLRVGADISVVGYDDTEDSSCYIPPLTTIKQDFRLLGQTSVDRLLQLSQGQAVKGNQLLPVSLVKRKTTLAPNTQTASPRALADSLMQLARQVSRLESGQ
Chain of His6-LacI-51 (P03023 51-360, stated change not applied): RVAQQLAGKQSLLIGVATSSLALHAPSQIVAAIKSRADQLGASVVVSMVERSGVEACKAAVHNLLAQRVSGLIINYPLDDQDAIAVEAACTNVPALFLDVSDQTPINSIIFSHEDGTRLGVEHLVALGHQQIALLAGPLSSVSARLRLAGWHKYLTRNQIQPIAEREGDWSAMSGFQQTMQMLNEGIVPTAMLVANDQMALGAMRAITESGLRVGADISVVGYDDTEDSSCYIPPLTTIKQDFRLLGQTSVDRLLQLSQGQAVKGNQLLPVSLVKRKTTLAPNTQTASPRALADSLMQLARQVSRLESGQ

Binder | apparent K (half saturation) [1] | binding result [2] | binding result [3] | binding result [4]
Oscram 40 bp (dsDNA) DNA 1: GTCATAAGTATCGTGAACTGCTGAGAGTGCTAGCGTTAGT DNA 2: ACTAACGCTAGCACTCTCAGCAGTTCACGATACTTATGAC | ~5 µM | no binding |  | 
O1 operator 40 bp (dsDNA) DNA 1: TGTTGTGTGGAATTGTGAGCGGATAACAATTTCACACAGG DNA 2: CCTGTGTGAAATTGTTATCCGCTCACAATTCCACACAACA |  |  | no binding | binds
